Measurements as given in paper doi:10.1101/2020.08.19.257725 (bioRxiv, 2020).

How the values were obtained:
Human serum albumin [1] = target: T1, Human serum albumin (Homo sapiens, UniProt P02768); assay: SPR
mouse albumin [2] = target: T2, mouse albumin (Mus musculus, UniProt P07724); assay: ELISA
Human serum albumin [3] = target: T1, Human serum albumin; assay: pull-down
mouse albumin [4] = target: T2, mouse albumin; assay: pull-down
[5] = target: cynomolgus monkey albumin (Macaca fascicularis, UniProt A2V9Z4); assay: pull-down
Sequence of cynomolgus monkey albumin (A2V9Z4 25-608): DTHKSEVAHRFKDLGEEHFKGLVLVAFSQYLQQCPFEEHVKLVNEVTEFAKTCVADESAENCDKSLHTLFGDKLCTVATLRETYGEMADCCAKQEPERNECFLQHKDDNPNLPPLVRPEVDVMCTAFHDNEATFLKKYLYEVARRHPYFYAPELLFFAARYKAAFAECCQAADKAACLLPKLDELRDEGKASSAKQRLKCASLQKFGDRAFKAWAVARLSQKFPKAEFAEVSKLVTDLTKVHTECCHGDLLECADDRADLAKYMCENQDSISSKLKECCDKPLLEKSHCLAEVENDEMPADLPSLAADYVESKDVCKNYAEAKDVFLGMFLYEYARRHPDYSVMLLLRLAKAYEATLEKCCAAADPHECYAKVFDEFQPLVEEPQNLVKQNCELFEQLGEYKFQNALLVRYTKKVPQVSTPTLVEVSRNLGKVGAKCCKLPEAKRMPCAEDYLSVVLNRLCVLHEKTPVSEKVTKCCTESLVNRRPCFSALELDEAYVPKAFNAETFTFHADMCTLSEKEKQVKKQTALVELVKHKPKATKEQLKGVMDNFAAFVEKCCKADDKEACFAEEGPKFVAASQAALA

T2 sequence (P07724 25-608): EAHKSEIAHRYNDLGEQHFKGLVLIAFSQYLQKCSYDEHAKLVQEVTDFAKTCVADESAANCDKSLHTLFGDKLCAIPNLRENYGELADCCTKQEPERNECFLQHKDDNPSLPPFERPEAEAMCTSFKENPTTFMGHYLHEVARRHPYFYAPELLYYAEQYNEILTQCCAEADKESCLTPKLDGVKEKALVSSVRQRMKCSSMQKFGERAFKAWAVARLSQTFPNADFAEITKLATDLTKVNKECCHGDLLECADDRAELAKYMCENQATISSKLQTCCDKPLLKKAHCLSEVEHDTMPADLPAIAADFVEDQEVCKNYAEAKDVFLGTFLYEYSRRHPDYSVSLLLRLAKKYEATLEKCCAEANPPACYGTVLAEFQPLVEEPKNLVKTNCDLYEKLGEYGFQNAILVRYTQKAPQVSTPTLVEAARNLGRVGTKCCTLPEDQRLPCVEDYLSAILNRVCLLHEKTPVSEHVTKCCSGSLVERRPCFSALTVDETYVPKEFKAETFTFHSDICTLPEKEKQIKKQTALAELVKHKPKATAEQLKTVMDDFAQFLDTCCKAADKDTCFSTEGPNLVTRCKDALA

B1: Nb126 (VHH)
VHH: QVQLVESGGGLVQAGGSLRLSCAASGLTFSNYVMGWFRQAPGKEREFVAYIHWSGGRILYADSVKGRFTISRDNTKNTMYLQMNSLKPDDTAVYYCTADQYATTVLRAAGEYWGQGTQVTVSE
Kd (Human serum albumin [1]): 0.251 nM

B2: Nb80 (VHH)
VHH: EVQLVESGGGLVQAGGSLRLSCTASGRTFTPYTMGWFRQAPGKEREFVASILWSGNNRDYADSVKGRFAISRDNAKNTAYLQMTSLKPEDTAVYYCAAGDGLGFYRSVNQYDYWGQGTQVTVS
binding result (mouse albumin [2]): binds | Kd (Human serum albumin [1]): 0.166 nM

B3: Nb13 (VHH)
VHH: HVQLVESGGELVQAGGSLRLSCAASGRTFSNYAMGWFRQAPGTEREFVAAISRSGGSTYYADSVKGRFIISRDNAKNTVWLQMNMLKPEDTSVYYCAAAEGLASGSYDYAPPLKSSWYDYWGQGTQVTVSE
Kd (Human serum albumin [1]): 0.201 nM

B4: Nb132 (VHH)
VHH: HVQLVESGGGLVQAGGSLRLSCAASGGTISNYGMGWLRQGPGKEREFVGSINWNGATTHYADSVKGRFIISRDNAKNTVYLQMNSLKPEDTGVYYCVAQFSVQPTLRTYDYGGQGTQVTVSE
binding result (Human serum albumin [3]): binds | binding result (mouse albumin [4]): binds | binding result [5]: binds

B5: Nb77 (VHH)
VHH: QVQLVESGGGLVQAGGSLRLSCTASGRTYEPLVMGWFRQAPGKEREFVATITPSGGSLSYADSVKGRFTVSRDNAKKTVYLQMNRLQPEDTAVYYCAAAPGVGNYRYTRQYDYWGQGTQVTVSE
binding result (mouse albumin [2]): binds
